Molecular target: T1, LbuCas13a R377A (Leptotrichia buccalis, UniProt C7NBY4 SEQ:1-1159)
T1 chain: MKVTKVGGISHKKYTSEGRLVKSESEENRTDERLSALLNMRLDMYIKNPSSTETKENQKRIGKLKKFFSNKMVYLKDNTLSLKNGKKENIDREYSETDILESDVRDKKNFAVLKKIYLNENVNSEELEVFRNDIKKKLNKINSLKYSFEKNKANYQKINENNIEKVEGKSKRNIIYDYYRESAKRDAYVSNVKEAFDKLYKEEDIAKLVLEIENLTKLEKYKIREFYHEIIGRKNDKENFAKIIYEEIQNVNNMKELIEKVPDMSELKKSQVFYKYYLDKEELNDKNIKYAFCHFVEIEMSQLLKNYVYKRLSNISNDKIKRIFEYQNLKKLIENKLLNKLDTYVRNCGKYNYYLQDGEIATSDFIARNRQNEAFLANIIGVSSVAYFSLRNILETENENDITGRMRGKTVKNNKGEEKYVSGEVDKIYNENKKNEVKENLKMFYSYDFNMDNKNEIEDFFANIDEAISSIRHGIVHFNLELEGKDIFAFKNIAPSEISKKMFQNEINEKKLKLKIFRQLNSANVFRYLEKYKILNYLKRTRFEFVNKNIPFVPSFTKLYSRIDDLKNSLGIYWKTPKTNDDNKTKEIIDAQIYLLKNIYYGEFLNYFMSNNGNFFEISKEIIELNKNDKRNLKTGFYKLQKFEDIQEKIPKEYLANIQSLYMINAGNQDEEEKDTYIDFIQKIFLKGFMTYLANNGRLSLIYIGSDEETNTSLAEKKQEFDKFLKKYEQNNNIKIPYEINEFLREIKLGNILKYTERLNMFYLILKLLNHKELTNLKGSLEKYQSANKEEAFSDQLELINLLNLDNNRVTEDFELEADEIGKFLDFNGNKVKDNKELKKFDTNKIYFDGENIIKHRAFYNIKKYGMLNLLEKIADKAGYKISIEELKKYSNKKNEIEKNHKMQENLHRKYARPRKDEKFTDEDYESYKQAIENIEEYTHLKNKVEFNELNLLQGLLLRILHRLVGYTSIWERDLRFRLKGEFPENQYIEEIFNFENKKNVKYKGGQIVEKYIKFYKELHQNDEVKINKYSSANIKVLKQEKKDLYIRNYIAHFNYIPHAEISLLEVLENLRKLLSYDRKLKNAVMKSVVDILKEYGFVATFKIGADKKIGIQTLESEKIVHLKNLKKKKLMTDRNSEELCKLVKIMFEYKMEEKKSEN
Experiment: cleavage_in_vitro; 10 nM; decreased about 50% vs WT; inactive at 100 pM
Conditions: tags: His6-MBP-TEV (cleaved); hairpin in direct repeat

B1: del crRNA 20 nt spacer ; perfect match target RNA (ssRNA ; ssRNA)
RNA 1: GGCCACCCCAAAAAUGAAGGGGACUAAAACACAAAUCUAUCUGAAUAAAC
RNA 2: GGGAAACCAAGAAGAAGAGUUUAUUCAGAUAGAUUUGUCACAGCAGAAGCCCACAC
activity: ~50 % of WT
